Laboratory results as given in the supplement of paper PMC10567573.

B1: ZBED3 (parent)
chain: GPGFHAGTSALWRHLRSAHRRELE
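Further: lentivirally expressed fusions sorted by FACS into six bins by GFP to DsRed ratio, PSI derived from sequencing read proportions per bin multiplied by bin number.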

Variants of: B1
Assay: protein stability index of a GFP-peptide fusion (GPS, HEK-293T) (PSI 1-6); higher = more stable
Details: c terminus: a fixed tail appended
GPGFHAGTLALWRHLRSAHRRELE [S9L] gave a protein stability index of 3.28. With GPGFHAGTHALWRHLRSAHRRELE [S9H] the protein stability index was 2.53. For GPGFHAGTEALWRHLRSAHRRELE [S9E], the protein stability index was 3.25. Work on GPGFHAGTWALWRHLRSAHRRELE [S9W] yielded a protein stability index of 2.05. In the case of GPGFHAGTKALWRHLRSAHRRELE [S9K], the protein stability index is reported as 2.68. Variant GPGFHAGTAALWRHLRSAHRRELE [S9A] has a protein stability index of 2.11. GPGFHAGTTALWRHLRSAHRRELE [S9T] gave a protein stability index of 3.06. With GPGFHAGTMALWRHLRSAHRRELE [S9M] the protein stability index was 2.44. Variant GPGFHAGTDALWRHLRSAHRRELE [S9D] has a protein stability index of 2.99. GPGFHAGTIALWRHLRSAHRRELE [S9I] gave a protein stability index of 1.74. With GPGFHAGTGALWRHLRSAHRRELE [S9G] the protein stability index was 1.71. For GPGFHAGTFALWRHLRSAHRRELE [S9F], the protein stability index was 2.23. GPGFHAGTYALWRHLRSAHRRELE [S9Y] showed a protein stability index of 3.23. In the case of GPGFHAGTNALWRHLRSAHRRELE [S9N], the protein stability index is reported as 2.68. Variant GPGFHAGTRALWRHLRSAHRRELE [S9R] has a protein stability index of 3.03. In the case of GPGFHAGTCALWRHLRSAHRRELE [S9C], the protein stability index is reported as 2. GPGFHAGTVALWRHLRSAHRRELE [S9V] showed a protein stability index of 1.92. In the case of GPGFHAGTQALWRHLRSAHRRELE [S9Q], the protein stability index is reported as 2.96. With GPGFHAGTPALWRHLRSAHRRELE [S9P] the protein stability index was 2.08. With GPGFHAGTSQLWRHLRSAHRRELE [A10Q] the protein stability index was 2.43. Variant GPGFHAGTSKLWRHLRSAHRRELE [A10K] has a protein stability index of 2. GPGFHAGTSSLWRHLRSAHRRELE [A10S] gave a protein stability index of 2.52. GPGFHAGTSILWRHLRSAHRRELE [A10I] gave a protein stability index of 1.85. Variant GPGFHAGTSELWRHLRSAHRRELE [A10E] has a protein stability index of 4.86. With GPGFHAGTSFLWRHLRSAHRRELE [A10F] the protein stability index was 2.33. Work on GPGFHAGTSLLWRHLRSAHRRELE [A10L] yielded a protein stability index of 1.88. GPGFHAGTSGLWRHLRSAHRRELE [A10G] showed a protein stability index of 2.67. For GPGFHAGTSMLWRHLRSAHRRELE [A10M], the protein stability index was 2.02. Work on GPGFHAGTSVLWRHLRSAHRRELE [A10V] yielded a protein stability index of 2.6. With GPGFHAGTSRLWRHLRSAHRRELE [A10R] the protein stability index was 3.4. GPGFHAGTSYLWRHLRSAHRRELE [A10Y] gave a protein stability index of 2.31. For GPGFHAGTSTLWRHLRSAHRRELE [A10T], the protein stability index was 3.08. Variant GPGFHAGTSCLWRHLRSAHRRELE [A10C] has a protein stability index of 2.32. For GPGFHAGTSHLWRHLRSAHRRELE [A10H], the protein stability index was 2.63. GPGFHAGTSWLWRHLRSAHRRELE [A10W] showed a protein stability index of 2.38. With GPGFHAGTSDLWRHLRSAHRRELE [A10D] the protein stability index was 3.22. GPGFHAGTSNLWRHLRSAHRRELE [A10N] showed a protein stability index of 2.67. GPGFHAGTSPLWRHLRSAHRRELE [A10P] showed a protein stability index of 2.28. In the case of GPGFHAGTSAIWRHLRSAHRRELE [L11I], the protein stability index is reported as 2.32. Work on GPGFHAGTSANWRHLRSAHRRELE [L11N] yielded a protein stability index of 2.3. For GPGFHAGTSAFWRHLRSAHRRELE [L11F], the protein stability index was 1.7. GPGFHAGTSAQWRHLRSAHRRELE [L11Q] showed a protein stability index of 2.54. Variant GPGFHAGTSACWRHLRSAHRRELE [L11C] has a protein stability index of 2.41. Work on GPGFHAGTSAEWRHLRSAHRRELE [L11E] yielded a protein stability index of 2.52. GPGFHAGTSAGWRHLRSAHRRELE [L11G] gave a protein stability index of 1.74. In the case of GPGFHAGTSAPWRHLRSAHRRELE [L11P], the protein stability index is reported as 2.23. GPGFHAGTSAMWRHLRSAHRRELE [L11M] gave a protein stability index of 2.64. Work on GPGFHAGTSAAWRHLRSAHRRELE [L11A] yielded a protein stability index of 1.71. Variant GPGFHAGTSAKWRHLRSAHRRELE [L11K] has a protein stability index of 3.32. Variant GPGFHAGTSADWRHLRSAHRRELE [L11D] has a protein stability index of 3.33. GPGFHAGTSAHWRHLRSAHRRELE [L11H] showed a protein stability index of 3.28. In the case of GPGFHQGTSALWRHLRSAHRRELE [A6Q], the protein stability index is reported as 2.59. GPGFHRGTSALWRHLRSAHRRELE [A6R] showed a protein stability index of 3.08. GPGFHTGTSALWRHLRSAHRRELE [A6T] showed a protein stability index of 2.33. With GPGFHSGTSALWRHLRSAHRRELE [A6S] the protein stability index was 2.14. GPGFHVGTSALWRHLRSAHRRELE [A6V] showed a protein stability index of 1.85. GPGFHWGTSALWRHLRSAHRRELE [A6W] showed a protein stability index of 1.82. GPGFHYGTSALWRHLRSAHRRELE [A6Y] showed a protein stability index of 2.59. Variant GPGFHAGISALWRHLRSAHRRELE [T8I] has a protein stability index of 2.09. Variant GPGFHAGHSALWRHLRSAHRRELE [T8H] has a protein stability index of 2.4. In the case of GPGFHAGKSALWRHLRSAHRRELE [T8K], the protein stability index is reported as 2.5. Variant GPGFHAGNSALWRHLRSAHRRELE [T8N] has a protein stability index of 2.91. GPGFHAGASALWRHLRSAHRRELE [T8A] showed a protein stability index of 1.75. With GPGFHAGQSALWRHLRSAHRRELE [T8Q] the protein stability index was 1.98. For GPGFHAGPSALWRHLRSAHRRELE [T8P], the protein stability index was 2.88. Work on GPGFHAGGSALWRHLRSAHRRELE [T8G] yielded a protein stability index of 2.26. GPGFHAGVSALWRHLRSAHRRELE [T8V] showed a protein stability index of 1.84. Variant GPGFHAGCSALWRHLRSAHRRELE [T8C] has a protein stability index of 2.51. For GPGFHAGESALWRHLRSAHRRELE [T8E], the protein stability index was 2.48. Work on GPGFHAGSSALWRHLRSAHRRELE [T8S] yielded a protein stability index of 2.89. In the case of GPGFHAGYSALWRHLRSAHRRELE [T8Y], the protein stability index is reported as 2.37. For GPGFHAGFSALWRHLRSAHRRELE [T8F], the protein stability index was 1.64. In the case of GPGFHAGWSALWRHLRSAHRRELE [T8W], the protein stability index is reported as 2.23. Work on GPGFHAGDSALWRHLRSAHRRELE [T8D] yielded a protein stability index of 3.67. GPGFHAGRSALWRHLRSAHRRELE [T8R] showed a protein stability index of 2.37. GPGFHAGMSALWRHLRSAHRRELE [T8M] showed a protein stability index of 2.37. With GPGFHAGLSALWRHLRSAHRRELE [T8L] the protein stability index was 2.52. Variant GPGFHATTSALWRHLRSAHRRELE [G7T] has a protein stability index of 2.21. Work on GPGFHACTSALWRHLRSAHRRELE [G7C] yielded a protein stability index of 1.75. Variant GPGFHAPTSALWRHLRSAHRRELE [G7P] has a protein stability index of 2.23. For GPGFHADTSALWRHLRSAHRRELE [G7D], the protein stability index was 3.25. Work on GPGFHARTSALWRHLRSAHRRELE [G7R] yielded a protein stability index of 2. For GPGFHANTSALWRHLRSAHRRELE [G7N], the protein stability index was 2.69. For GPGFHAWTSALWRHLRSAHRRELE [G7W], the protein stability index was 1.52. GPGFHALTSALWRHLRSAHRRELE [G7L] gave a protein stability index of 1.45. With GPGFHAITSALWRHLRSAHRRELE [G7I] the protein stability index was 2.31. For GPGFHAATSALWRHLRSAHRRELE [G7A], the protein stability index was 2.62. Variant GPGFHAETSALWRHLRSAHRRELE [G7E] has a protein stability index of 5.51. GPGFHAYTSALWRHLRSAHRRELE [G7Y] showed a protein stability index of 2.68. GPGFHAMTSALWRHLRSAHRRELE [G7M] gave a protein stability index of 2.35. In the case of GPGFHAQTSALWRHLRSAHRRELE [G7Q], the protein stability index is reported as 2.47. GPGFHAKTSALWRHLRSAHRRELE [G7K] gave a protein stability index of 2.01. GPGFHAVTSALWRHLRSAHRRELE [G7V] gave a protein stability index of 2.19. In the case of GPGFHASTSALWRHLRSAHRRELE [G7S], the protein stability index is reported as 2.73.
